From IntAct's records for PubMed 11733528

B1: Early protein (Human adenovirus C serotype 5 (HAdV-5)), P03255-2 (parent)
chain: MRHIICHGGVITEEMAASLLDQLIEEVLADNLPPPSHFEPPTLHELYDLDVTAPEDPNEEAVSQIFPDSVMLAVQEGIDLLTFPPAPGSPEPPHLSRQPEQPEQRALGPVSMPNLVPEVIDLTCHEAGFPPSDDEDEEGPVSEPEPEPEPEPEPARPTRRPKMAPAILRRPTSPVSRECNSSTDSCDSGPSNTPPEIHPVVPLCPIKPVAVRVGGRRQAVECIEDLLNEPGQPLDLSCKRPRP
partner: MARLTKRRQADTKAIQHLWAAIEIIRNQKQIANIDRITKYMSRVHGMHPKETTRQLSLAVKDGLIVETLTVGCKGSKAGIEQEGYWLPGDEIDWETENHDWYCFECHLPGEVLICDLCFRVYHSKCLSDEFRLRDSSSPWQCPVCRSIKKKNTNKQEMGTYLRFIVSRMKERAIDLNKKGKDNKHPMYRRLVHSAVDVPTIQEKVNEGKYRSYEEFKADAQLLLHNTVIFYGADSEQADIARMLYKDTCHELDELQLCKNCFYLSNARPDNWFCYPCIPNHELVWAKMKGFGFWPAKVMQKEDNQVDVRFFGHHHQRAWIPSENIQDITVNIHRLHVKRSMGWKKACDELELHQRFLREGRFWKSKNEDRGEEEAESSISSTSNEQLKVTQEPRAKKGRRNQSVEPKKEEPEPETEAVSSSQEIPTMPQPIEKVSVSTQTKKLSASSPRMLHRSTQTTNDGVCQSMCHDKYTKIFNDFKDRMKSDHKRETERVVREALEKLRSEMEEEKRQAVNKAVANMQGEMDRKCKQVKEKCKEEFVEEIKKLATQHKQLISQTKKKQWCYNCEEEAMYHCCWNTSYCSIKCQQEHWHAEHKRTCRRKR

Variants of: B1
Settings: with zmy11_human ZMYND11, Q15326

Row | Variant | effect of a mutation on the interaction
1 | L115A | disrupting interaction
